Test results published in paper PMC8884905, “RECON syndrome is a genome instability disorder caused by mutations in the DNA helicase RECQL1” (The Journal of Clinical Investigation, 2022).

Experiments:
RECQL1 WT (human) [1] = experiment: EMSA; conditions: EMSA: 20 mM Tris pH 7.4, 10 mM KCl, 5 mM MgCl2, 10% glycerol, 80 ng/ul BSA, with or without 5 mM ATPgS, 0.5 nM DNA; competition at 37 C (8 min, then 7 min with …)
RECQL1-A459S (human) [2] = experiment: EMSA; conditions: EMSA: 20 mM Tris pH 7.4, 10 mM KCl, 5 mM MgCl2, 10% glycerol, 80 ng/ul BSA, with or without 5 mM ATPgS, 0.5 nM DNA; competition at 37 C (8 min, then 7 min with …)
RECQL1 WT (human) [3] = experiment: EMSA; conditions: EMSA: 20 mM Tris pH 7.4, 10 mM KCl, 5 mM MgCl2, 10% glycerol, 80 ng/ul BSA, with or without 5 mM ATPgS, 0.5 nM DNA; competition at 37 C (8 min, then 7 min with …); remark: listed apart in the source
RECQL1-A459S (human) [4] = experiment: EMSA; conditions: EMSA: 20 mM Tris pH 7.4, 10 mM KCl, 5 mM MgCl2, 10% glycerol, 80 ng/ul BSA, with or without 5 mM ATPgS, 0.5 nM DNA; competition at 37 C (8 min, then 7 min with …); remark: listed apart in the source
[5] = target: the molecule itself; experiment: SEC; size exclusion chromatography of the purified recombinant protein in the absence of ATP

19 bp forked duplex
Kd (RECQL1 WT (human) [1]): 2.94 nM?
Kd (RECQL1-A459S (human) [2]): 4.74 nM?
Kd (RECQL1 WT (human) [3]): 5.39 nM?
Kd (RECQL1-A459S (human) [4]): 7.69 nM?

B1: recombinant human WT RECQL1 (enzyme, UniProt P46063 1-649, looked up)
chain: MASVSALTEELDSITSELHAVEIQIQELTERQQELIQKKKVLTKKIKQCLEDSDAGASNEYDSSPAAWNKEDFPWSGKVKDILQNVFKLEKFRPLQLETINVTMAGKEVFLVMPTGGGKSLCYQLPALCSDGFTLVICPLISLMEDQLMVLKQLGISATMLNASSSKEHVKWVHAEMVNKNSELKLIYVTPEKIAKSKMFMSRLEKAYEARRFTRIAVDEVHCCSQWGHDFRPDYKALGILKRQFPNASLIGLTATATNHVLTDAQKILCIEKCFTFTASFNRPNLYYEVRQKPSNTEDFIEDIVKLINGRYKGQSGIIYCFSQKDSEQVTVSLQNLGIHAGAYHANLEPEDKTTVHRKWSANEIQVVVATVAFGMGIDKPDVRFVIHHSMSKSMENYYQESGRAGRDDMKADCILYYGFGDIFRISSMVVMENVGQQKLYEMVSYCQNISKCRRVLMAQHFDEVWNSEACNKMCDNCCKDSAFERKNITEYCRDLIKILKQAEELNEKLTPLKLIDSWMGKGAAKLRVAGVVAPTLPREDLEKIIAHFLIQQYLKEDYSFTAYATISYLKIGPKANLLNNEAHAITMQVTKSTQNSFRAESSQTCHSEQGDKKMEEKNSGNFQKKAANMLQQSGSKNTGAKKRKIDDA
notes: RECQL1 (RECQL, RECQ1) DNA helicase, human, wild type; also called RECQ1; source: insect cells, purified to near homogeneity
binding result [5]: binds

B2: recombinant human RECQL1-A459S (enzyme, UniProt P46063 1-649, looked up)
chain: MASVSALTEELDSITSELHAVEIQIQELTERQQELIQKKKVLTKKIKQCLEDSDAGASNEYDSSPAAWNKEDFPWSGKVKDILQNVFKLEKFRPLQLETINVTMAGKEVFLVMPTGGGKSLCYQLPALCSDGFTLVICPLISLMEDQLMVLKQLGISATMLNASSSKEHVKWVHAEMVNKNSELKLIYVTPEKIAKSKMFMSRLEKAYEARRFTRIAVDEVHCCSQWGHDFRPDYKALGILKRQFPNASLIGLTATATNHVLTDAQKILCIEKCFTFTASFNRPNLYYEVRQKPSNTEDFIEDIVKLINGRYKGQSGIIYCFSQKDSEQVTVSLQNLGIHAGAYHANLEPEDKTTVHRKWSANEIQVVVATVAFGMGIDKPDVRFVIHHSMSKSMENYYQESGRAGRDDMKADCILYYGFGDIFRISSMVVMENVGQQKLYEMVSYCQNISKCRRVLMSQHFDEVWNSEACNKMCDNCCKDSAFERKNITEYCRDLIKILKQAEELNEKLTPLKLIDSWMGKGAAKLRVAGVVAPTLPREDLEKIIAHFLIQQYLKEDYSFTAYATISYLKIGPKANLLNNEAHAITMQVTKSTQNSFRAESSQTCHSEQGDKKMEEKNSGNFQKKAANMLQQSGSKNTGAKKRKIDDA
notes: Variant found in patients (RECON syndrome); also called p.A459S mutant RECQL1; RECQL1 p.Ala459Ser; source: insect cells, purified to near homogeneity
binding result [5]: binds
